The supplement of paper PMC5998384

Tests used:
HeLa Kyoto [1] = test: solubility in G1/S (NP-40 vs SDS abundance) (log2 ratio); higher = more soluble; conditions: cell cycle stage: G1/S
HeLa Kyoto [2] = test: melting temperature (median over replicates), in situ; higher = more thermally stable
HeLa Kyoto [3] = test: thermal stability score vs G1/S (z-score of summed log2 fold changes over temperatures); higher = more thermally stable than in G1/S
HeLa Kyoto [4] = test: solubility change mitosis vs G1/S (difference of NP-40 vs SDS log2 ratios) (log2 ratio difference); higher = more soluble in mitosis
[5] = cell cycle stage: early G1 (4.5 h after nocodazole release)
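For melting temperature (median over replicates), in situ in this document: HeLa Kyoto cells synchronized by double thymidine or nocodazole block, proteins quantified by TMT10plex mass spectrometry, three independent biological replicates.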
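For solubility change mitosis vs G1/S (difference of NP-40 vs SDS log2 ratios) in this document: synchronized HeLa Kyoto cells (double thymidine block for G1/S, nocodazole release for mitosis), protein amounts in NP-40 versus SDS lysates quantified by mass spectrometry, three biological replicates.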
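For solubility in G1/S (NP-40 vs SDS abundance) in this document: HeLa Kyoto cells arrested at G1/S by double thymidine block, proteins quantified by TMT10plex mass spectrometry in mild NP-40 versus SDS extracts, three biological replicates.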
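For thermal stability score vs G1/S (z-score of summed log2 fold changes over temperatures) in this document: synchronized HeLa Kyoto cells, proteins quantified by TMT10plex mass spectrometry, three biological replicates, mitosis taken 0.5 h after nocodazole release, G1/S directly after double thymidine block.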

Sequence of TIMM17A (chain, as listed by the source): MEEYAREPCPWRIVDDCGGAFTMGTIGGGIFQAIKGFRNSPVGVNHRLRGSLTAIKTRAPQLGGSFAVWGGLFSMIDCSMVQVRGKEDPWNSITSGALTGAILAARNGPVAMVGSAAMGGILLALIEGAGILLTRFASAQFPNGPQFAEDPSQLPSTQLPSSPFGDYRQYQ
Sequence of STRIP1 (chain, as listed by the source): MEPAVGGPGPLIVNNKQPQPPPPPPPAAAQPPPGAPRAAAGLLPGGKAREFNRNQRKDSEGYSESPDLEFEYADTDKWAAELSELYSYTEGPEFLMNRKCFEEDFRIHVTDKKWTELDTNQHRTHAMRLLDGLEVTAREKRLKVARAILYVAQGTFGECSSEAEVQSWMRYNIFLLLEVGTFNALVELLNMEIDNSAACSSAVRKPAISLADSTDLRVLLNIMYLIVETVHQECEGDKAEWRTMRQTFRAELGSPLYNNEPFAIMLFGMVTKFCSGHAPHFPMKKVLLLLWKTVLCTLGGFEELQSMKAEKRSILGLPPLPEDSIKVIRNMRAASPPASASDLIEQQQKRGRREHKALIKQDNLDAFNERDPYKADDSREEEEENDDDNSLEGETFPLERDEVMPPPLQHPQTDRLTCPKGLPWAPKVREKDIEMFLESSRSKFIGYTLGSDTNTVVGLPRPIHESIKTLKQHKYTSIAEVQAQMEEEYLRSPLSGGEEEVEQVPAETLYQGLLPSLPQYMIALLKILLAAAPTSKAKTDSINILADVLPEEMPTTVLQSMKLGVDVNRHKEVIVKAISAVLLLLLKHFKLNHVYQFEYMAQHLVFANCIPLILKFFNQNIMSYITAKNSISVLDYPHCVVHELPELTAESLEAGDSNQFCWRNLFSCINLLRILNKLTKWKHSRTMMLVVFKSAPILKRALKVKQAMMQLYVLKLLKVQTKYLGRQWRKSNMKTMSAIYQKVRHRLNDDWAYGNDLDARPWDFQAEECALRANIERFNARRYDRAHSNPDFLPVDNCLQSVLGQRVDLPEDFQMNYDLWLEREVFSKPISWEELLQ
Sequence of VPRBP (chain, as listed by the source): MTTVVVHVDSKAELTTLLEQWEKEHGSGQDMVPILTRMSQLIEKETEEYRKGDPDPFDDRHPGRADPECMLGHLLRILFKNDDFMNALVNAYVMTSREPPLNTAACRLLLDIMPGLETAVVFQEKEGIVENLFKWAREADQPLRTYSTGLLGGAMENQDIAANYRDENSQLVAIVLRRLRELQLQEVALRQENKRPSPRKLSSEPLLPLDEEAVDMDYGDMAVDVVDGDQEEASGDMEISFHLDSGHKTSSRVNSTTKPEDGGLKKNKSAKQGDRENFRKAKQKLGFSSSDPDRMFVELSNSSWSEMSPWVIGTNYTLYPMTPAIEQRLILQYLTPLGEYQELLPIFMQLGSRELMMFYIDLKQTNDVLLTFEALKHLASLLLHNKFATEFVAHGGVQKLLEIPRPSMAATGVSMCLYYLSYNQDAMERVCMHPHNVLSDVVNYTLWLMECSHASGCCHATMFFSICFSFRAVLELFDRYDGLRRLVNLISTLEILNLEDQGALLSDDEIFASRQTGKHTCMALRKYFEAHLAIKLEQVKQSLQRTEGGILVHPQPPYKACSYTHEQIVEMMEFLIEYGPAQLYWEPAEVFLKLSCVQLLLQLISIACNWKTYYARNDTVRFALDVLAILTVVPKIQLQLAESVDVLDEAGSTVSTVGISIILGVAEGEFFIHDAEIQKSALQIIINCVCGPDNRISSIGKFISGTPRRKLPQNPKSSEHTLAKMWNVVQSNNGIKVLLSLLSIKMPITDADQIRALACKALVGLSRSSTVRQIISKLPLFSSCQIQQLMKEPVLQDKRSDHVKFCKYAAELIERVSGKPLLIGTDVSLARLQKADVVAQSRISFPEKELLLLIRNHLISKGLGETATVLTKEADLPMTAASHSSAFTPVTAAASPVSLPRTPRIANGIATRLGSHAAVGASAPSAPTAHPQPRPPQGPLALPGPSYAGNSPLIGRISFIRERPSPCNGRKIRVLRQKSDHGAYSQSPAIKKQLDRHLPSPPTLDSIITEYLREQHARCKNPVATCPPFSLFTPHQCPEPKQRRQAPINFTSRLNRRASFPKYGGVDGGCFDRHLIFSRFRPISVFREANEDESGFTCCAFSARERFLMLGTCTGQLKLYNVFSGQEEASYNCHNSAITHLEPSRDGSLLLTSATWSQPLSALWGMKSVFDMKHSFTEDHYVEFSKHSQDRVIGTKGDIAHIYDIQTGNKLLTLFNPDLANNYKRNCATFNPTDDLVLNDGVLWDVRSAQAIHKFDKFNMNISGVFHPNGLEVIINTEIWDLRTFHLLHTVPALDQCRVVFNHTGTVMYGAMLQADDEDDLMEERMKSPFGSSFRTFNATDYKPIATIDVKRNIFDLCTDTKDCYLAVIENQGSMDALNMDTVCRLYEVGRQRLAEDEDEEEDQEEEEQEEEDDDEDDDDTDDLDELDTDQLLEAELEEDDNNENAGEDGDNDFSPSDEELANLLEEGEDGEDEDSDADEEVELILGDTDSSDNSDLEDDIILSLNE
Sequence of WRAP53 (chain, as listed by the source): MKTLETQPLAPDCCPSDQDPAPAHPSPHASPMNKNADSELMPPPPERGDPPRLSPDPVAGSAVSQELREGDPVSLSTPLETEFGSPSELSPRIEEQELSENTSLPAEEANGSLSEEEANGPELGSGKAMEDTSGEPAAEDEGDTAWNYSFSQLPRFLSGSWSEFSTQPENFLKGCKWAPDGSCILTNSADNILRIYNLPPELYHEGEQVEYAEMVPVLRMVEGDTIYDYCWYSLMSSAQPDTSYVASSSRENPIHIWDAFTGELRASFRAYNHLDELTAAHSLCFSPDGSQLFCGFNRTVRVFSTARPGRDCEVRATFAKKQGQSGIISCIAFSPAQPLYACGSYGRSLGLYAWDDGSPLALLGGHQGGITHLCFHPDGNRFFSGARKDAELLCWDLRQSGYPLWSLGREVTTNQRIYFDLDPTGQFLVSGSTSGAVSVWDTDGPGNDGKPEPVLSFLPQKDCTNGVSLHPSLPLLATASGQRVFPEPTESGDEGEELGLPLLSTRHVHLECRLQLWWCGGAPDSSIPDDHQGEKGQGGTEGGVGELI
Sequence of STK38L (chain, as listed by the source): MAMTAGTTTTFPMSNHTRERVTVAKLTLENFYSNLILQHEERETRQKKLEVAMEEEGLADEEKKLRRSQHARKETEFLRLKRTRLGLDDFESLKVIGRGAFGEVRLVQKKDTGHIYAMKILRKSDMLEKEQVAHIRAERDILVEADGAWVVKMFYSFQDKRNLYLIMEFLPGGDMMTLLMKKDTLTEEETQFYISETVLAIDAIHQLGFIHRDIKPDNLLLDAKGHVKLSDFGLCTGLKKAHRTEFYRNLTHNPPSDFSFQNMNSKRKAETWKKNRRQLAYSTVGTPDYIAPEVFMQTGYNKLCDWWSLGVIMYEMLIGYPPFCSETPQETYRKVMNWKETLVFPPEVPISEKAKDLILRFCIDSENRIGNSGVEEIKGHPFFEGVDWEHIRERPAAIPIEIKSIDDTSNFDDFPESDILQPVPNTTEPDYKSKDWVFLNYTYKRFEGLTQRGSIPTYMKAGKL
Sequence of ZFR (chain, as listed by the source): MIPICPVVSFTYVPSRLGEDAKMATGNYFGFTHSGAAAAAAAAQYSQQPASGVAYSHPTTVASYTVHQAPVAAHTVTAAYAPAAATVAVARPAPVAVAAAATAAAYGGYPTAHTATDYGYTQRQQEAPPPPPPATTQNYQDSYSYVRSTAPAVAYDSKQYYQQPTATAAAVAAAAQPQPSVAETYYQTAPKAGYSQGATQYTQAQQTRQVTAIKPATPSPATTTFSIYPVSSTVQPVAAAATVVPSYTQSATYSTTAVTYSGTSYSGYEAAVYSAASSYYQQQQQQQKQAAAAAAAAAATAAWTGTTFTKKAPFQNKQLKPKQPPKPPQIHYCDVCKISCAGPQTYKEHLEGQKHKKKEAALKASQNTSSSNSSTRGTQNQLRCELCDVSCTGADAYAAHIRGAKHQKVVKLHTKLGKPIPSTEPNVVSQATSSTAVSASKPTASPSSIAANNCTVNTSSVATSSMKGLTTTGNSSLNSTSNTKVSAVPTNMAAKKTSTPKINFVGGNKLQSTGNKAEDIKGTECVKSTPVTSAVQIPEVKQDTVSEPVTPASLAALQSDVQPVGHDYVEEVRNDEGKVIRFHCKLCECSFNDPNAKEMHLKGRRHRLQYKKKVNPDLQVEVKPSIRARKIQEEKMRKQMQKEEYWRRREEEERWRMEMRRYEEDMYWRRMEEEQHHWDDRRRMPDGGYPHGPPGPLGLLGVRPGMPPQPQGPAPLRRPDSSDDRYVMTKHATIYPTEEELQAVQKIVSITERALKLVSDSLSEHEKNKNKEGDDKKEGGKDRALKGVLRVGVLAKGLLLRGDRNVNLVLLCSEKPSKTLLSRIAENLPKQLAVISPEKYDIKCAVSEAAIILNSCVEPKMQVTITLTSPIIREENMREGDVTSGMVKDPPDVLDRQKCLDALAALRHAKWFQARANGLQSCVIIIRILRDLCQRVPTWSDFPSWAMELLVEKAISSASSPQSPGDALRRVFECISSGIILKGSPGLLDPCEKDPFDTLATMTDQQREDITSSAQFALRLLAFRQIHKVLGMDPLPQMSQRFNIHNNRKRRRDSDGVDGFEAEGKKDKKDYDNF
Sequence of ZMAT2 (chain, as listed by the source): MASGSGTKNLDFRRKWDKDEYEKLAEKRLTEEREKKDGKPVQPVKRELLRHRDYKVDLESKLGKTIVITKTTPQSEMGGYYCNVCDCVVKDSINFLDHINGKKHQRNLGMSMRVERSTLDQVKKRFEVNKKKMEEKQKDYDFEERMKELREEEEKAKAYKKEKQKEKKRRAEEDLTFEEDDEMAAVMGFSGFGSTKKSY

Row | Substance | solubility in G1/S (log2) (HeLa Kyoto [1]) | melting temperature (HeLa Kyoto [2]; cell cycle stage: G1/S) | melting temperature (HeLa Kyoto [2]; cell cycle stage: mitosis) | thermal stability score (HeLa Kyoto [3]; [5]) | thermal stability score (HeLa Kyoto [3]; cell cycle stage: mitosis) | solubility change mitosis (log2) (HeLa Kyoto [4])
1 | SRSF6 | -0.646 | 49.8 °C | 50.6 °C | -0.248 | -2.07 | 0.385
2 | STK38L | -0.0449 | 50.2 °C | 49.3 °C | 0.62 | 1.53 | -0.074
3 | STRIP1 | 0.0221 | 51.3 °C | 49.6 °C | 0.575 | 0.412 | -0.214
4 | SUCLG1 | 0.168 | 50.8 °C | 50.9 °C | -0.306 | -0.375 | -0.0912
5 | SVEP1 | -0.163 | 54.1 °C | 55.1 °C | 1.39 | 1.6 | -0.0333
6 | TACC3 | 0.351 | 53.3 °C | 53.1 °C | -0.722 | 1.13 | 0.304
7 | TAF15 | -0.786 | 51.1 °C | 53.1 °C | -0.357 | -4.49 | 0.12
8 | THOP1 | 0.0611 | 56.3 °C | 56.1 °C | -1.55 | -2.28 | -0.109
9 | TIMM17A | 0.157 | 58.5 °C | 58.7 °C | -1.93 | -3.23 | -0.00894
10 | TNKS1BP1 | -0.0801 | 57.1 °C | 59.8 °C | -3.49 | -3.6 | 0.0438
11 | TP53BP1 | -0.0663 | 49.9 °C | 50.8 °C | -3.39 | -2.67 | -0.107
12 | TPP2 | -0.0302 | 54.6 °C | 54.2 °C | -1.14 | -1.13 | -0.106
13 | TTN | -0.476 | 50.4 °C | 51.5 °C | 2.14 | 1.45 | 0.167
14 | UBE2Q1 | 0.255 | 50 °C | 50.3 °C | 0.426 | 0.875 | -0.042
15 | UBR1 | -0.252 | 48.6 °C | 50.3 °C | 0.878 | 1.16 | -0.26
16 | UBR4 | -0.243 | 51.3 °C | 50.4 °C | -0.403 | 0.0628 | -0.163
17 | UBR5 | -0.142 | 47.5 °C | 49.8 °C | 1.78 | 5.42 | -0.155
18 | USP9X | -0.226 | 50.4 °C | 50.6 °C | -0.0892 | 0.618 | -0.134
19 | VPRBP | -0.225 | 50.8 °C | 50.6 °C | -0.576 | -0.973 | -0.0867
20 | VPS13A | -0.236 | 53.6 °C | 53.7 °C | -1.93 | -1.94 | -0.144
21 | VWA8 | -0.224 | 50.3 °C | 50.4 °C | 1.66 | 1.12 | -0.0997
22 | WDR62 | -0.382 | 49 °C | 49.3 °C | 0.713 | 1.36 | 0.187
23 | WRAP53 | -0.0145 | 53.7 °C | 53.4 °C | -1.59 | -0.902 | -0.144
24 | YES1 | -0.536 | 51.2 °C | 50.9 °C | 0.418 | 0.409 | 0.0165
25 | YLPM1 | -0.708 | 48.3 °C | 48.3 °C | 0.777 | 0.487 | 0.495
26 | ZFC3H1 | -0.247 | 49.3 °C | 49.9 °C | 0.428 | 0.858 | 0.0411
27 | ZFR | -0.167 | 52.4 °C | 51.9 °C | 0.655 | -0.928 | 0.103
28 | ZMAT2 | -0.324 | 57.8 °C | 54.3 °C | 1.39 | -4.93 | 0.427
29 | ZMYM4 | -0.601 | 46 °C | 49.4 °C | 1.6 | 3.25 | 0.281
30 | ZNF24 | -0.217 | – | 52.2 °C | 1.15 | 1.78 | 0.265
